Experimental data from patent publication US20190328867A1 (EMORY UNIVERSITY, published 2019).

Biological target: T1, varicella-zoster virus glycoprotein H (varicella-zoster virus, UniProt P09260 18-841, limits assumed)
T1 sequence (looked up): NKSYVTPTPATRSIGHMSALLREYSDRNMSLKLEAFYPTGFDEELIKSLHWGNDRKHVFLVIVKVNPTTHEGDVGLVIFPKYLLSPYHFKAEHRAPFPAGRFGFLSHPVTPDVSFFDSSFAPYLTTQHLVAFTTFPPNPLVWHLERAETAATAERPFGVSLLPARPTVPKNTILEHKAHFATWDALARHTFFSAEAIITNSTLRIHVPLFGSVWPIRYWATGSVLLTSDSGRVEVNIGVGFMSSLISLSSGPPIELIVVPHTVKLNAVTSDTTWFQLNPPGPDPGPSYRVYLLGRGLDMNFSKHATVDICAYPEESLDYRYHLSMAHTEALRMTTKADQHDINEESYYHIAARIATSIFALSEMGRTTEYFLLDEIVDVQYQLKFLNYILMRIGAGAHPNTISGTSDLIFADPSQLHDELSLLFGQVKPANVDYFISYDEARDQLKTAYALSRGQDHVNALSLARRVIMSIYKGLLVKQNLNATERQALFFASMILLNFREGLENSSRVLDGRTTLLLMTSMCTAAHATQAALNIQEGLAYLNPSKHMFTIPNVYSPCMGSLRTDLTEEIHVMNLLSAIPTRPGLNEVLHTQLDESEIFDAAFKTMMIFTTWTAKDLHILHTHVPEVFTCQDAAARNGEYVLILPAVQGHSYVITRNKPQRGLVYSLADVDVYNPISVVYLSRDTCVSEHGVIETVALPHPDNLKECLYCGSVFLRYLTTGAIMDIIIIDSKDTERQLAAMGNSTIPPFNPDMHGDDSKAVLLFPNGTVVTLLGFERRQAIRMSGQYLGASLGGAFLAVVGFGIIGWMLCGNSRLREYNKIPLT
Experiment: cell-based or functional assay

Row | Binder | In vitro neutralization IC50 (with complement) | In vitro neutralization IC50 (without complement)
1 | RM-2D6 (antibody, IgG1, V domains shown) VH: EVQLVESGGGVVQPGRSLRLSCAASGFMFSSYGMHWVRQAPGKGLEWVAAVSHDGTNDLYADSVKGRFSISRDNSKNTLYLQMNSLRAEDTAVYYCAKTSWARFLEWTFDYWGQGTLVTVSS VL: DIQMTQSPSSLSASVGDRVTITCRASQSINRYLNWYQQKPGKAPKLLIYGASSLQSGVPLRFSGSGSGTDFTLTISSLQPEDFATYYCQQSHSTPTFGQGTRLEIK | 0.03 µg/mL | 0.23 µg/mL
2 | 302-1G9 (antibody, IgG1, V domains shown) VH: QVQLVQSGAEVKKPGASVKVSCEAFGYTFSNYGFTWVRQAPGQGLEWMGWISASNANTKYGQKFRGRVTLTTDTSTSTAYMELRNLGYDDTAMYYCARDRGGSLAMVVGLDHWGQGTLVTVSS VL: DIQMTQSPTSLSASVGDRVTITCRASQSIGGYLNWYQQNPGKAPKLLIYAASTLQRGVPSRFSGGGSGTDFTLTITSLQPEDFATYYCQQCYSAELTFGGGTKVEIK | 0.06 µg/mL | 0.09 µg/mL
